Laboratory results published in patent US20030148343.

Test system: RSG1.2 peptide (synthetic)
Experiment: FP
Details: about fifty fold greater RNA concentration than RRE1 required for similar polarization; 150 mM KCl, 5 mM MgCl2

GGCUGGUAUGGGCGCAGCGUCAAUGACGCUGCGCCCAGGCCAGCC [RRE2 hairpin]
fold-higher RNA concentration than RRE1 for similar polarization: 50 fold
